Paper PMC5231405 (eLife, 2016)
Residue numbers refer to the chain shown, from its start. One block for each molecule: values may come before it.

How the values were obtained:
[1] = molecular target: CheY (Escherichia coli) (UniProt P0AE67); conditions: cited from earlier work
[2] = molecular target: T1, DesKCSTAB:DesR-REC complex (phosphatase complex) (Bacillus subtilis, UniProt O34757, S150I/S153L/R157I); assay: X-ray crystallography; conditions: Mg2+, BeF3-; pH 8.5; CA (ATP-binding) domain; 2.79 A
T1 construct: gene desK; DesK cytoplasmic portion with DesR receiver domain; His-tag and TEV site on each, co-expressed in E. coli BL21(DE3); 2:2 complex; with Transcriptional regulatory protein DesR

[3] = molecular target: T2, DesKC_(H188E), free protein used in ITC (B. subtilis, UniProt O34757 154-370, H188E); assay: ITC; VP-ITC; DesR-REC (350-400 µM) injected into the cell with DesKC variants (25-30 µM); 15°C; 20 mM Tris.HCl pH 8, 0.3 M NaCl, 10 mM MgCl2, 0.5 mM AMP-PNP; duplicate; fitted to a two independent sequential site model; conditions: both partners purified
T2 construct: DesK, histidine kinase of Bacillus subtilis; cytoplasmic portion (DesKC); Kept apart from m2 because it stood alone in the calorimeter cell, whereas m2 was co-expressed and purified with DesR-REC; It may be the same polypeptide as m2
T2 sequence: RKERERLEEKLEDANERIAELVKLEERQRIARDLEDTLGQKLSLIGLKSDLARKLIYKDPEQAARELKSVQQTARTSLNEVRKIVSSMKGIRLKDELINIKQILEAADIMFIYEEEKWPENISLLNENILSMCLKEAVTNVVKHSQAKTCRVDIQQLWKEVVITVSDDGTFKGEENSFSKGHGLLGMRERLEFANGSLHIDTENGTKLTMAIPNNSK

[4] = molecular target: T3, DesKC_(H188V), mutant of the cytoplasmic portion of DesK trapped in the phosphatase state (B. subtilis, UniProt O34757 154-370, H188V); assay: as above; conditions: both partners purified
T3 construct: DesK, histidine kinase of Bacillus subtilis; cytoplasmic portion (DesKC); also called DesK_(H188V)
T3 sequence: T2 sequence with E35V

[5] = molecular target: T2, DesKC_(H188E), free protein used in ITC; assay: as above; set-up: unit not given here; conditions: both partners purified
[6] = molecular target: T3, DesKC_(H188V), mutant of the …; assay: as above; set-up: unit not given here; conditions: both partners purified
[7] = molecular target: DesKC_(STAB), phosphatase-constitutive mutant of the cytoplasmic portion of the histidine kinase DesK (B. subtilis); assay: SEC-SAXS; purified DesK-DesR complexes at 10 mg/mL in 50 mM Tris.HCl pH 8.0, 300 mM NaCl, Superdex 75 5/150 GL, beamline SWING; theoretical curves of crystal models fitted with CRYSOL, mixtures with OLIGOMER

CheY (Escherichia coli), sequence (P0AE67 2-129): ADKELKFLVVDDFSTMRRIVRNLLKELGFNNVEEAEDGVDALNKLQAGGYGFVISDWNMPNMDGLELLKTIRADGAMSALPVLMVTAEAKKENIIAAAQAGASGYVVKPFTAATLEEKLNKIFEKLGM
T1 sequence (O34757 150-370 S150I/S153L/R157I, one chain of several): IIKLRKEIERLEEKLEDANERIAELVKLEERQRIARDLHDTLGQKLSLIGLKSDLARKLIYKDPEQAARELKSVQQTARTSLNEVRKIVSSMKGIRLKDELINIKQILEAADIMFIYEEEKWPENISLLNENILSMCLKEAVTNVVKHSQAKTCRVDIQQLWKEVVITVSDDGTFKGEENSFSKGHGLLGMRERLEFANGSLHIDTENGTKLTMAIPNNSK

Molecule: CheA (from UniProt P07363)
Kd [1]: 30 nM

Molecule: Nc1ncnc2c1ncn2[C@@H]1O[C@H](COP(=O)(O)OP(=O)(O)CP(=O)(O)O)[C@@H](O)[C@H]1O [AMP-PCP]
X-ray crystallography [2]: one AMP-PCP (ATP analogue) moiety is bound to each CA domain

stoichiometry N [3]: 1 RR monomers per HK dimer
stoichiometry N [4]: 2 RR monomers per HK dimer
dH, first printed row (two sequential sites fit) [5]: 22000
dH, second printed row (two sequential sites fit) [5]: 21000
dH, first printed row (two sequential sites fit) [6]: 15000
dH, second printed row (two sequential sites fit) [6]: 14000
stoichiometry N (RR monomers per HK dimer) [7]: 2
B1: DesR-REC, free protein used as ligand in ITC (domain or fragment, B. subtilis)
chain: MISIFIAEDQQMLLGALGSLLNLEDDMEVVGKGTTGQDAVDFVKKRQPDVCIMDIEMPGKTGLEAAEELKDTGCKIIILTTFARPGYFQRAIKAGVKGYLLKDSPSEELANAIRSVMNGKRIYAPELMEDLYSEA
notes: DesR, response regulator of Bacillus subtilis, REC domain; Probably from pQE80-DesR-REC in E. coli TOP10F', the plasmid and host that the methods name for functional assays (Trajtenberg et al., 2014)
